Assay results as given in patent US20260242735A1 (UNIVERSIT T BASEL, published 2026).

B1: Refmab #5 (antibody, human IgG1, V domains shown)
VH: QVQLVQSGAEVKKPGASVKVSCKASGYTFTNYDINWVRQAPGQGLEWIGWIYPGDGSTKYNEKFKAKATLTADTSTSTAYMELRSLRSDDTAVYYCASGYEDAMDYWGQGTTVTVSS
VL: DIQMTQSPSSLSASVGDRVTINCKASQDINSYLSWFQQKPGKAPKTLIYRANRLVDGVPSRFSGSGSGQDYTLTISSLQPEDFATYYCLQYDEFPLTFGGGTKVEIK
B2: Refmab #6 (antibody, human IgG1, V domains shown)
VH: QVQLQQPGAEVVKPGASVKMSCKASGYTFTSYYIHWIKQTPGQGLEWVGVIYPGNDDISYNQKFQGKATLTADKSSTTAYMQLSSLTSEDSAVYYCAREVRLRYFDVWGQGTTVTVSS
VL: EIVLTQSPGSLAVSPGERVTMSCKSSQSVFFSSSQKNYLAWYQQIPGQSPRLLIYWASTRESGVPDRFTGSGSGTDFTLTISSVQPEDLAIYYCHQYLSSRTFGQGTKLEIK

Tests used:
Assay in all cases: flow cytometry on transfected cells, IgG
human CD33 F43L = human CD33 F43L (human, UniProt P20138 18-364)
Chain of human CD33 F43L (P20138 18-364 F43L limits assumed): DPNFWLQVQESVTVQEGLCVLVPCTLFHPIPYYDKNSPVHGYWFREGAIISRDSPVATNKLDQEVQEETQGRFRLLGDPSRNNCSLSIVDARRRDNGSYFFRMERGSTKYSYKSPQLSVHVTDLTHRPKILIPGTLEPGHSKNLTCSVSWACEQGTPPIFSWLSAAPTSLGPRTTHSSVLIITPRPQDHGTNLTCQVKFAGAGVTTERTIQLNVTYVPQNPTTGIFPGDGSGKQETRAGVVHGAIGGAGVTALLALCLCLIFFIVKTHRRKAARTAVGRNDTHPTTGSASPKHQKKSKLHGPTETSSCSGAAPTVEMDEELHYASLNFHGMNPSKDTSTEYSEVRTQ
Description: (§1) An alanine scan on human CD33 was performed to the determine the residues on CD33 that are involved in binding to the antibodies investigated. […] Briefly, a mutation library of CD33 was created by high-throughput, site-directed mutagenesis. Each residue was individually mutated to alanine, with alanine codons mutated to serine. The mutant library was arrayed in 384-well microplates and transiently transfected into HEK293-T. Following transfection, cells were incubated with the indicated antibodies (IgG or Fab) at concentrations pre-determined using an independent immunofluorescence titration curve on wild type CD33. […] Binding of each antibody to each mutant clone was determined in duplicates. For each point, background fluorescence was subtracted from the raw data, which were then normalized to antibody reactivity with wild type CD33.
(§2) Antibodies were screened for binding to the human CD33 variants in IgG format. […] For each mutation, background fluorescence was subtracted from the raw data, which were then normalized to antibody reactivity with wild-type CD33.

human CD33 F44S = human CD33 F44S (human, UniProt P20138 18-364)
Chain of human CD33 F44S (P20138 18-364 F44S limits assumed): as the sequence (P20138 18-364 F43L limits assumed) above, with L26F, F27S counted along it
Description: as §1, §2

human CD33 F44I = human CD33 F44I (human, UniProt P20138 18-364)
Chain of human CD33 F44I (P20138 18-364 F44I limits assumed): as the sequence (P20138 18-364 F43L limits assumed) above, with L26F, F27I counted along it
Description: as §1, §2

human CD33 F44T = human CD33 F44T (human, UniProt P20138 18-364)
Description: as §1, §2

human CD33 H45Y = human CD33 H45Y (human, UniProt P20138 18-364)
Chain of human CD33 H45Y (P20138 18-364 H45Y limits assumed): as the sequence (P20138 18-364 F43L limits assumed) above, with L26F, H28Y counted along it
Description: as §1, §2

human CD33 P46S = human CD33 P46S (human, UniProt P20138 18-364)
Description: as §1, §2

human CD33 P46R = human CD33 P46R (human, UniProt P20138 18-364)
Description: as §1, §2

human CD33 P46Y = human CD33 P46Y (human, UniProt P20138 18-364)
Description: as §1, §2

human CD33 P46H = human CD33 P46H (human, UniProt P20138 18-364)
Description: as §1, §2

human CD33 I47G = human CD33 I47G (human, UniProt P20138 18-364)
Chain of human CD33 I47G (P20138 18-364 I47G limits assumed): as the sequence (P20138 18-364 F43L limits assumed) above, with L26F, I30G counted along it
Description: as §1, §2

human CD33 I47T = human CD33 I47T (human, UniProt P20138 18-364)
Description: as §1, §2

human CD33 I47L = human CD33 I47L (human, UniProt P20138 18-364)
Description: as §1, §2

human CD33 I47F = human CD33 I47F (human, UniProt P20138 18-364)
Description: as §1, §2

human CD33 I47Y = human CD33 I47Y (human, UniProt P20138 18-364)
Chain of human CD33 I47Y (P20138 18-364 I47Y limits assumed): as the sequence (P20138 18-364 F43L limits assumed) above, with L26F, I30Y counted along it
Description: as §1, §2

human CD33 I47W = human CD33 I47W (human, UniProt P20138 18-364)
Description: as §1, §2

human CD33 I47Q = human CD33 I47Q (human, UniProt P20138 18-364)
Description: as §1, §2

human CD33 I47R = human CD33 I47R (human, UniProt P20138 18-364)
Description: as §1, §2

human CD33 I47P = human CD33 I47P (human, UniProt P20138 18-364)
Chain of human CD33 I47P (P20138 18-364 I47P limits assumed): as the sequence (P20138 18-364 F43L limits assumed) above, with L26F, I30P counted along it
Description: as §1, §2

human CD33 P48V = human CD33 P48V (human, UniProt P20138 18-364)
Description: as §1, §2

human CD33 P48I = human CD33 P48I (human, UniProt P20138 18-364)
Description: as §1, §2

human CD33 P48F = human CD33 P48F (human, UniProt P20138 18-364)
Description: as §1, §2

human CD33 P48W = human CD33 P48W (human, UniProt P20138 18-364)
Chain of human CD33 P48W (P20138 18-364 P48W limits assumed): as the sequence (P20138 18-364 F43L limits assumed) above, with L26F, P31W counted along it
Description: as §1, §2

human CD33 P48D = human CD33 P48D (human, UniProt P20138 18-364)
Chain of human CD33 P48D (P20138 18-364 P48D limits assumed): as the sequence (P20138 18-364 F43L limits assumed) above, with L26F, P31D counted along it
Description: as §1, §2

human CD33 P48K = human CD33 P48K (human, UniProt P20138 18-364)
Description: as §1, §2

human CD33 P48G = human CD33 P48G (human, UniProt P20138 18-364)
Description: as §1, §2

human CD33 P48S = human CD33 P48S (human, UniProt P20138 18-364)
Description: as §1, §2

human CD33 Y49P = human CD33 Y49P (human, UniProt P20138 18-364)
Chain of human CD33 Y49P (P20138 18-364 Y49P limits assumed): as the sequence (P20138 18-364 F43L limits assumed) above, with L26F, Y32P counted along it
Description: as §1, §2

human CD33 T42N = human CD33 T42N (human, UniProt P20138 18-364)
Chain of human CD33 T42N (P20138 18-364 T42N limits assumed): as the sequence (P20138 18-364 F43L limits assumed) above, with T25N, L26F counted along it
Description: as §1, §2

human CD33 Y49D = human CD33 Y49D (human, UniProt P20138 18-364)
Description: as §1, §2

human CD33 Y49R = human CD33 Y49R (human, UniProt P20138 18-364)
Chain of human CD33 Y49R (P20138 18-364 Y49R limits assumed): as the sequence (P20138 18-364 F43L limits assumed) above, with L26F, Y32R counted along it
Description: as §1, §2

human CD33 Y49V = human CD33 Y49V (human, UniProt P20138 18-364)
Description: as §1, §2

human CD33 Y49I = human CD33 Y49I (human, UniProt P20138 18-364)
Description: as §1, §2

human CD33 T42K = human CD33 T42K (human, UniProt P20138 18-364)
Chain of human CD33 T42K (P20138 18-364 T42K limits assumed): as the sequence (P20138 18-364 F43L limits assumed) above, with T25K, L26F counted along it
Description: as §1, §2

human CD33 Y50S = human CD33 Y50S (human, UniProt P20138 18-364)
Description: as §1, §2

human CD33 Y50Q = human CD33 Y50Q (human, UniProt P20138 18-364)
Chain of human CD33 Y50Q (P20138 18-364 Y50Q limits assumed): as the sequence (P20138 18-364 F43L limits assumed) above, with L26F, Y33Q counted along it
Description: as §1, §2

human CD33 Y50D = human CD33 Y50D (human, UniProt P20138 18-364)
Description: as §1, §2

human CD33 Y50L = human CD33 Y50L (human, UniProt P20138 18-364)
Description: as §1, §2

human CD33 F43V = human CD33 F43V (human, UniProt P20138 18-364)
Description: as §1, §2

Row | Binder | Mean % WT Binding (human CD33 F43L) [% WT binding] | Mean % WT Binding (human CD33 F44S) [% WT binding] | Mean % WT Binding (human CD33 F44I) [% WT binding] | Mean % WT Binding (human CD33 F44T) [% WT binding] | Mean % WT Binding (human CD33 H45Y) [% WT binding] | Mean % WT Binding (human CD33 P46S) [% WT binding] | Mean % WT Binding (human CD33 P46R) [% WT binding] | Mean % WT Binding (human CD33 P46Y) [% WT binding] | Mean % WT Binding (human CD33 P46H) [% WT binding] | Mean % WT Binding (human CD33 I47G) [% WT binding] | Mean % WT Binding (human CD33 I47T) [% WT binding] | Mean % WT Binding (human CD33 I47L) [% WT binding] | Mean % WT Binding (human CD33 I47F) [% WT binding] | Mean % WT Binding (human CD33 I47Y) [% WT binding] | Mean % WT Binding (human CD33 I47W) [% WT binding] | Mean % WT Binding (human CD33 I47Q) [% WT binding] | Mean % WT Binding (human CD33 I47R) [% WT binding] | Mean % WT Binding (human CD33 I47P) [% WT binding] | Mean % WT Binding (human CD33 P48V) [% WT binding] | Mean % WT Binding (human CD33 P48I) [% WT binding] | other results
1 | B1 | 96.3 | 104 | 106 | 92.4 | 94.2 | 98.7 | 103 | 48 | 69.8 | 80.9 | 98.4 | 107 | 90.5 | 94.5 | 90.8 | 94.6 | 94.6 | 4.9 | 53.5 | 4 | Mean % WT Binding (human CD33 P48F): 6 % WT binding; Mean % WT Binding (human CD33 P48W): 2.2 % WT binding; Mean % WT Binding (human CD33 P48D): 2.1 % WT binding; Mean % WT Binding (human CD33 P48K): 58.7 % WT binding; Mean % WT Binding (human CD33 P48G): 3.5 % WT binding; Mean % WT Binding (human CD33 P48S): 43 % WT binding; Mean % WT Binding (human CD33 Y49P): 2.2 % WT binding; Mean % WT Binding (human CD33 T42N): 91.1 % WT binding; Mean % WT Binding (human CD33 Y49D): 1.7 % WT binding; Mean % WT Binding (human CD33 Y49R): 1 % WT binding; Mean % WT Binding (human CD33 Y49V): 0.9 % WT binding; Mean % WT Binding (human CD33 Y49I): 0.5 % WT binding; Mean % WT Binding (human CD33 T42K): 79.5 % WT binding; Mean % WT Binding (human CD33 Y50S): 5.3 % WT binding; Mean % WT Binding (human CD33 Y50Q): 2.9 % WT binding; Mean % WT Binding (human CD33 Y50D): 2.5 % WT binding; Mean % WT Binding (human CD33 Y50L): 1.7 % WT binding; Mean % WT Binding (human CD33 F43V): 82.2 % WT binding
2 | B2 | 87.9 | 86.1 | 93.1 | 93.9 | 84.4 | 110 | 103 | 79.9 | 107 | 105 | 97.2 | 99.1 | 105 | 105 | 114 | 107 | 96.9 | 114 | 105 | 102 | Mean % WT Binding (human CD33 P48F): 93.8 % WT binding; Mean % WT Binding (human CD33 P48W): 87.2 % WT binding; Mean % WT Binding (human CD33 P48D): 115 % WT binding; Mean % WT Binding (human CD33 P48K): 89.4 % WT binding; Mean % WT Binding (human CD33 P48G): 89 % WT binding; Mean % WT Binding (human CD33 P48S): 97.2 % WT binding; Mean % WT Binding (human CD33 Y49P): 117 % WT binding; Mean % WT Binding (human CD33 T42N): 93.5 % WT binding; Mean % WT Binding (human CD33 Y49D): 117 % WT binding; Mean % WT Binding (human CD33 Y49R): 101 % WT binding; Mean % WT Binding (human CD33 Y49V): 121 % WT binding; Mean % WT Binding (human CD33 Y49I): 113 % WT binding; Mean % WT Binding (human CD33 T42K): 91.2 % WT binding; Mean % WT Binding (human CD33 Y50S): 122 % WT binding; Mean % WT Binding (human CD33 Y50Q): 103 % WT binding; Mean % WT Binding (human CD33 Y50D): 129 % WT binding; Mean % WT Binding (human CD33 Y50L): 108 % WT binding; Mean % WT Binding (human CD33 F43V): 91.8 % WT binding
